Laboratory results published in paper PMC9818667.

T1: angiotensin-converting enzyme (ACE) from rabbit lung (rabbit) (UniProt P12822)
T1 sequence: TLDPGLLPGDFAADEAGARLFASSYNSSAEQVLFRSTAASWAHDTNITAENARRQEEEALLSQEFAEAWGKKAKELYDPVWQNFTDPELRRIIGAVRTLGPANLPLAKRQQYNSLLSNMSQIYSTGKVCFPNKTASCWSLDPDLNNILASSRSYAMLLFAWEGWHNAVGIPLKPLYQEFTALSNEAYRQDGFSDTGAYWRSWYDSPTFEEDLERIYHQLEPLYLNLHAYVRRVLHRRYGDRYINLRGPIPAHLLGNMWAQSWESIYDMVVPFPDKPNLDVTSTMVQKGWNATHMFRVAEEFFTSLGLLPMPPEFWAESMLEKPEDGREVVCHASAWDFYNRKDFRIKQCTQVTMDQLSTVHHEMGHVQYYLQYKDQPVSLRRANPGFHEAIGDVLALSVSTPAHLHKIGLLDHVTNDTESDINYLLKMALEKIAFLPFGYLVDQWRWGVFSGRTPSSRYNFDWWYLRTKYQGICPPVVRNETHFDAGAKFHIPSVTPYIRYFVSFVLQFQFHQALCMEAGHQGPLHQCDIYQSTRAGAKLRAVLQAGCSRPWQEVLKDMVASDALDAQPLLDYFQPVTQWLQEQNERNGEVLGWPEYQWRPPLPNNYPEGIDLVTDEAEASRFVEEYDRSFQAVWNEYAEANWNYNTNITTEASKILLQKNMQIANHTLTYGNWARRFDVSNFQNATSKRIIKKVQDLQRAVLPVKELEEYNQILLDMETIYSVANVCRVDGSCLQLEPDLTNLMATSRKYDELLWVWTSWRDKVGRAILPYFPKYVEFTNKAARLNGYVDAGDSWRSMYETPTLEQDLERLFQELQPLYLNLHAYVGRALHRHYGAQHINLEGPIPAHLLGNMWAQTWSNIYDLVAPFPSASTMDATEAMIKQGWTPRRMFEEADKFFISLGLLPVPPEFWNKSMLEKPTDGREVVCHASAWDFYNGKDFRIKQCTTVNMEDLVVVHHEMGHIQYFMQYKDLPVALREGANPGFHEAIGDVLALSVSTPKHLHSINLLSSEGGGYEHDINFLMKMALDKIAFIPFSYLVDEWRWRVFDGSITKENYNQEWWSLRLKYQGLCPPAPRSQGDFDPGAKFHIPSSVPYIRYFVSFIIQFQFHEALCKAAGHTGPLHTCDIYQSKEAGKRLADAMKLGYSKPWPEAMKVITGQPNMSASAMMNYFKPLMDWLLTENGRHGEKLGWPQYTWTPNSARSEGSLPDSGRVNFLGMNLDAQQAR

B1: … (peptide)
peptide: TTPSYVAFTDTER
B2: … (peptide)
peptide: QFQPGFSSS
B3: … (peptide)
peptide: STGEAFVQFASQEIAEK
B4: VALSSLRP (peptide)
peptide: VALSSLRP
B5: … (peptide)
peptide: NPDDITNEEYGEFYK

What follows are binders tested against T1, angiotensin-converting enzyme (ACE) from rabbit lung (rabbit).

Row | ACE inhibitory activity (substrate HHL, hippuric acid by HPLC), peptide at 1 mg/mL | IC50 of ACE inhibitory activity (substrate HHL, hippuric acid by HPLC) | Binder
1 | 26.7% |  | B1
2 | 40.9% |  | B2
3 | 1.57% |  | B3
4 | 91.7% | 39 µg/mL | B4
5 | 2.81% |  | B5
